Results reported in doi:10.1101/2020.03.02.972562.

Biological target: RSC complex (budding yeast (S. cerevisiae) (endogenous in BJ3505)) (UniProt P32597)
Test: BLI

Sequence of UniProt P32597 (P32597 whole entry, looked up, one chain of several): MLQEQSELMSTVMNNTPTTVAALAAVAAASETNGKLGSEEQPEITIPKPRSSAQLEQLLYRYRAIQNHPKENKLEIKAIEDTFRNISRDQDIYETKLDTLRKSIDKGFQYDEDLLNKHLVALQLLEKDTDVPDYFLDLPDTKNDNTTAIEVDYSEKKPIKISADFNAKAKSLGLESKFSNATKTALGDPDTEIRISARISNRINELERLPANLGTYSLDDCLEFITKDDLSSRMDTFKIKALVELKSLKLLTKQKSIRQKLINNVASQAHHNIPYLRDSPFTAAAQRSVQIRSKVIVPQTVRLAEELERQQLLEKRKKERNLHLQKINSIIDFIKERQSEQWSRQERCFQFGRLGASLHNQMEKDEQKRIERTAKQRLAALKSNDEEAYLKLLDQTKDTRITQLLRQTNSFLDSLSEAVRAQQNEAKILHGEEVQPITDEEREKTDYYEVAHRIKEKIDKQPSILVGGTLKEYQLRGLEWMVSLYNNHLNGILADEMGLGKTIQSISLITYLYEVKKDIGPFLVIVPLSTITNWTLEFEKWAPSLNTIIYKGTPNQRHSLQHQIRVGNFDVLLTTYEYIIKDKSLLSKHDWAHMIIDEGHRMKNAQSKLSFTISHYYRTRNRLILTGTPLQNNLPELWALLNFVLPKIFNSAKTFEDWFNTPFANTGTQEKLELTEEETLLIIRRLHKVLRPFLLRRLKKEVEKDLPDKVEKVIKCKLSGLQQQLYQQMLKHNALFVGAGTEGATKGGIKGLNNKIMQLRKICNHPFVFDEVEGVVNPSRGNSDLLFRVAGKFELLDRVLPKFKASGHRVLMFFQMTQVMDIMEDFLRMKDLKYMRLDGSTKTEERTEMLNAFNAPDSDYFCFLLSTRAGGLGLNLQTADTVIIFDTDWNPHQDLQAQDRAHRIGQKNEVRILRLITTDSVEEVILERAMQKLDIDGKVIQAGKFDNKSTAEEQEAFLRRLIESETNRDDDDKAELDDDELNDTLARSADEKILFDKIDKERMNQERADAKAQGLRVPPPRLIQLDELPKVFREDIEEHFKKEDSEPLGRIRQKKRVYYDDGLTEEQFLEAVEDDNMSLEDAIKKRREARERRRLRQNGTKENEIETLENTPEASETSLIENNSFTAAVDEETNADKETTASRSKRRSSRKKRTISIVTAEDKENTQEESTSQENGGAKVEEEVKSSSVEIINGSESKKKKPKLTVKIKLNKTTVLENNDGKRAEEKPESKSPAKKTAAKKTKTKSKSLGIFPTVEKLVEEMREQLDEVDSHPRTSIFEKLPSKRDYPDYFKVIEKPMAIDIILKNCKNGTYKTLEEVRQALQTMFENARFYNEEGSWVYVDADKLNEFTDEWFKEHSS

SUMOylated nucleosome core particles (from UniProt P68431 1-136; P62805 1-103; P04908 1-130; P02281 6-126) (complex)
fold affinity against unmodified NCPs: 2 fold
